This is an account of results in patent publication US20260022160A1 (AFFYXELL THERAPEUTICS, published 2026).

The chains are these.
B1: stefin A protein variant clone 261 (designed binder)
chain: MIPGGLSEAKPATPEIQEIVDKVKPQLEEKTGETYGKLEAVQYKTQVVVDQVWSENAGTNYYIKVRAGDNKYMHLKVFKSLPYLWRKHAVEDLVLTGYQVDKNKDDELTGF
B2: stefin A protein variant clone 244 (designed binder)
chain: MIPGGLSEAKPATPEIQEIVDKVKPQLEEKTGETYGKLEAVQYKTQVVRENWYGEFAGTNYYIKVRAGDNKYMHLKVFKSLLYIYRHPNYEDLVLTGYQVDKNKDDELTGF
B3: stefin A protein variant clone 243 (designed binder)
chain: MIPGGLSEAKPATPEIQEIVDKVKPQLEEKTGETYGKLEAVQYKTQVVFTYQISYTVGTNYYIKVRAGDNKYMHLKVFKSLRWRYPARKPEDLVLTGYQVDKNKDDELTGF
B4: stefin A protein variant clone 227 (designed binder)
chain: MIPGGLSEAKPATPEIQEIVDKVKPQLEEKTGETYGKLEAVQYKTQVVHDVFYDQKAGTNYYIKVRAGDNKYMHLKVFKSLKWWYRIGNPEDLVLTGYQVDKNKDDELTGF
B5: stefin A protein variant clone 229 (designed binder)
chain: MIPGGLSEAKPATPEIQEIVDKVKPQLEEKTGETYGKLEAVQYKTQVVQYKIITWWSGTNYYIKVRAGDNKYMHLKVFKSLVYKNKRGGHEDLVLTGYQVDKNKDDELTGF
B6: stefin A protein variant clone 231 (designed binder)
chain: MIPGGLSEAKPATPEIQEIVDKVKPQLEEKTGETYGKLEAVQYKTQVVYYQIITWWQGTNYYIKVRAGDNKYMHLKVFKSLGIRKKQQQREDLVLTGYQVDKNKDDELTGF
B7: stefin A protein variant clone 246 (designed binder)
chain: MIPGGLSEAKPATPEIQEIVDKVKPQLEEKTGETYGKLEAVQYKTQVVHIPALKVHAGTNYYIKVRAGDNKYMHLKVFKSLPYWYRHDQEEDLVLTGYQVDKNKDDELTGF
B8: stefin A protein variant clone 230 (designed binder)
chain: MIPGGLSEAKPATPEIQEIVDKVKPQLEEKTGETYGKLEAVQYKTQVVHYYVHYNDQGTNYYIKVRAGDNKYMHLKVFKSLWGENLFAKWEDLVLTGYQVDKNKDDELTGF
B9: stefin A protein variant clone 233 (designed binder)
chain: MIPGGLSEAKPATPEIQEIVDKVKPQLEEKTGETYGKLEAVQYKTQVVLQDQWPWRDGTNYYIKVRAGDNKYMHLKVFKSLTYGKKWYSWEDLVLTGYQVDKNKDDELTGF
B10: stefin A protein variant clone 247 (designed binder)
chain: MIPGGLSEAKPATPEIQEIVDKVKPQLEEKTGETYGKLEAVQYKTQVVHHAYAAVYVGTNYYIKVRAGDNKYMHLKVFKSLPYWYRKYPDEDLVLTGYQVDKNKDDELTGF
B11: stefin A protein variant clone 270 (designed binder)
chain: MIPGGLSEAKPATPEIQEIVDKVKPQLEEKTGETYGKLEAVQYKTQVVLDGLYHVNSGTNYYIKVRAGDNKYMHLKVFKSLFYYYRSEPTEDLVLTGYQVDKNKDDELTGF
B12: stefin A protein variant clone 248 (designed binder)
chain: MIPGGLSEAKPATPEIQEIVDKVKPQLEEKTGETYGKLEAVQYKTQVVYDELYHEKAGTNYYIKVRAGDNKYMHLKVFKSLEYKFRNLEEDLVLTGYQVDKNKDDELTGF
B13: clone-230 DT (trimer with a rigid linker) (designed binder)
chain: IPGGLSEAKPATPEIQEIVDKVKPQLEEKTGETYGKLEAVQYKTQVVHYYVHYNDQGTNYYIKVRAGDNKYMHLKVFKSLWGENLFAKWEDLVLTGYQVDKNKDDELTGFAEAAAKEAAAKEAAAKEAAAKEAAAKEAAAKMIPGGLSEAKPATPEIQEIVDKVKPQLEEKTGETYGKLEAVQYKTQVVHYYVHYNDQGTNYYIKVRAGDNKYMHLKVFKSLWGENLFAKWEDLVLTGYQVDKNKDDELTGFAEAAAKEAAAKEAAAKEAAAKEAAAKEAAAKMIPGGLSEAKPATPEIQEIVDKVKPQLEEKTGETYGKLEAVQYKTQVVHYYVHYNDQGTNYYIKVRAGDNKYMHLKVFKSLWGENLFAKWEDLVLTGYQVDKNKDDELTGF
B14: clone-230 DS (tetramer with a rigid linker) (designed binder)
chain: IPGGLSEAKPATPEIQEIVDKVKPQLEEKTGETYGKLEAVQYKTQVVHYYVHYNDQGTNYYIKVRAGDNKYMHLKVFKSLWGENLFAKWEDLVLTGYQVDKNKDDELTGFAEAAAKEAAAKEAAAKEAAAKEAAAKEAAAKMIPGGLSEAKPATPEIQEIVDKVKPQLEEKTGETYGKLEAVQYKTQVVHYYVHYNDQGTNYYIKVRAGDNKYMHLKVFKSLWGENLFAKWEDLVLTGYQVDKNKDDELTGFAEAAAKEAAAKEAAAKEAAAKEAAAKEAAAKMIPGGLSEAKPATPEIQEIVDKVKPQLEEKTGETYGKLEAVQYKTQVVHYYVHYNDQGTNYYIKVRAGDNKYMHLKVFKSLWGENLFAKWEDLVLTGYQVDKNKDDELTGFAEAAAKEAAAKEAAAKEAAAKEAAAKEAAAKMIPGGLSEAKPATPEIQEIVDKVKPQLEEKTGETYGKLEAVQYKTQVVHYYVHYNDQGTNYYIKVRAGDNKYMHLKVFKSLWGENLFAKWEDLVLTGYQVDKNKDDELTGF

For the first experiment, the target named is T1, human CD40L (human, UniProt P29965 113-261, limits assumed).
T1 construct: also called hCD40L; huCD40L
T1 sequence (looked up): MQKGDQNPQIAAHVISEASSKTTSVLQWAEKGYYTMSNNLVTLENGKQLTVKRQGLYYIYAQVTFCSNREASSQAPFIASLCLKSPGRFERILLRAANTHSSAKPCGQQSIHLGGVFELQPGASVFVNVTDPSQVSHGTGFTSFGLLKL
Kind of experiment: direct binding ELISA on plate-coated hCD40L (5 ug/ml), detection biotinylated anti-cystatin A antibody + polyHRP-streptavidin, OD 450-630 nm. As to the method: Plates were washed 2 times with 150 μl of washing buffer (PBS, Tween 20 0.1%) with a plate washer and saturated with Casein 5% (Sigma) in PBS for 90 minutes at room temperature (25±1° C.). For binding, each DAW01 clone and rhCD40 Fc were added to the plate, starting from 1 μM, 1 in 3 and 300 nM, 1 in 3 respectively. Plates were washed 3 times as described previously. […] Then, cystatin A biotinylated polyclonal antibody (BAF1407) was diluted to a concentration of 0.05 μg/ml in dilution buffer (PBS, 1% casein, 0.01% Tween 20) and the plate was incubated for 90 minutes at room temperature (25±1° C.). PolyHRP-streptavidin was then diluted in dilution buffer and the plates were incubated for 90 minutes at room temperature (25±1° C.). The plates were then washed 3 times as described previously, and the substrate (TMB, Pierce Thermo-Scientific) was added to the plates for 10 minutes. The reaction was stopped using an acidic solution, and plates were read at 450-630 nm.
A general note: ELISA stands for enzyme-linked immunosorbent assay.
Broadly, the EC50 is the concentration needed to bring the measured effect to its halfway point. Take B1: the EC50 is 26.4 nM.
On the same count and under the same terms, with B2 the figure was 45.6 nM.
In the case of B3, the EC50 is 57.5 nM.
Take B4: the 50% effective concentration (EC50) worked out at 12.4 nM.
B5: the EC50 came out at 15.3 nM.
For B6, the EC50 came to 6.12 nM.
B7: the half-maximal effective concentration (EC50) came to 17.3 nM.
The same measure, in the same setting: with B8 the figure was 0.67 nM.
As to B9, the EC50 was determined as 3.07 nM.

The target in a further experiment is T1, human CD40L. Kind of experiment: BIACORE (SPR) on hCD40L, kinetic fit; immobilised partner not stated. For orientation: Surface plasmon resonance follows binding to a sensor surface in real time, without labels.
The Kd is the equilibrium constant for the complex coming apart. Low values mean a tighter complex, high ones a looser complex. The koff is the rate constant with which the complex falls apart. By kon is commonly meant a measure of how fast the partners come together. Read a low kon as slow association. Molecule B10 registered a dissociation constant Kd of 3.74 nM, an off-rate constant (koff) of 0.00207 s⁻¹ and a kon of 553000 M⁻¹ s⁻¹.
On the same counts, the results for B8 are 8.15 nM, 0.000975 s⁻¹ and 120000 M⁻¹ s⁻¹.

The target in another experiment is T2, human CD40L expressed on HEK293 cells (human, UniProt P29965 1-261).
T2 construct: whole, on cells; also called hCD40L-HEK293 cells; hCD40L-HEK-293 cells (Crown Biosciences, C2041)
T2 sequence (looked up): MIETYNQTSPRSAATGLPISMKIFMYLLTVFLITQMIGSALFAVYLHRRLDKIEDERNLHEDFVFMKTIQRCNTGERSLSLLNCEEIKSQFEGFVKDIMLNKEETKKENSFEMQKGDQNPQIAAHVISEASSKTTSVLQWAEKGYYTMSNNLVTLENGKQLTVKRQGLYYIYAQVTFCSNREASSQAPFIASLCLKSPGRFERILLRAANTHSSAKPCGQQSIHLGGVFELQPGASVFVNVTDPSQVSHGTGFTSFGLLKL
Kind of experiment: flow cytometry, clone at 1 uM on hCD40L-HEK293 cells (hatched), HEK-293 negative cells as control (open), detection anti-Cystatin A + A488 anti-goat. As to the method:
The cells were resuspended in PBS and 200,000 cells per well were dispatched in a round bottom 96 well plate. Cells were washed with PBS. The stefin A protein variant and controls were diluted in staining buffer containing 1% BSA, 0.01% Sodium Azide (NaN3), 2 mM EDTA in DPBS in duplicate and added on cells for staining for approximately 60 min at 4±1° c. Cells were washed and the secondary anti-Cystatin A (R&D, AF1407) was diluted 0.2 mg/ml in staining buffer and added on cells for staining for approximately 45 min at 4±1° c. Cells were washed again and the detection antibody A488 anti-goat (ThermoFisher, A21467) was diluted 1:500 in staining buffer and added to the cells for staining (approximately 30 min at 4±1° C.). Finally, the cells were washed and live and dead cells were stained using L/D stain Zombie Yellow (Biolegend, 423103) diluted in staining buffer for 10 min at 4±1° C. Cells were washed again and fixation buffer (R&D) was added to each well for 10 min at 4±1° C. then PBS with EDTA (Lonza) was added prior reading the plate on the flow cytometer (Guava 12 HT, Millipore). Dead cells were excluded, and the fluorescent green channel (488 nm/525/30) was acquired. Results were analyzed using Incyte and data were plotted using GraphPad.
A general note: In flow cytometry, cells or beads pass a laser one at a time.
Regarding B1, the “% Positive” value was determined as 97.9% and the MFI turned out to be 7050 MFI.
Turning to B3, the “% Positive” value amounted to 98.3% and the MFI came out at 4400 MFI.
Regarding B10, the “% Positive” value is 98.8% and the MFI came to 9890 MFI.
In the case of B11, the “% Positive” value is 98.4% and the MFI came to 8540 MFI.
As to B12, the “% Positive” value was found to be 98.1% and the MFI came to 9620 MFI.
On the same counts, the results for B8 are 98.8% and 8990 MFI.

Another experiment deals with T1, human CD40L. The experiment is described as follows: cell-based or functional assay.
Regarding B10, the “EC50 (HEK-Blue CD40 reporter cells, SEAP, OD 640 nm, hCD40L 0.8 nM)” value turned out to be 101 nM.
For B8, the “EC50 (HEK-Blue CD40 reporter cells, SEAP, OD 640 nm, hCD40L 0.8 nM)” value is 11.6 nM.

A further experiment has as its target T1, human CD40L. The experiment is described as follows: cell-based or functional assay. This is another data set of the same source.
Take B10: the “EC50 (HEK-Blue cell-based assay, % inhibition)” value was found to be 1190 nM.
As for B8, the “EC50 (HEK-Blue cell-based assay, % inhibition)” value was 608 nM.

The next experiment deals with T1, human CD40L. The experiment is described as follows: competitive ELISA: hCD40L (1 nM) premixed with the binder and added to plate-coated rhCD40 Fc; bound hCD40L detected with biotinylated anti-hCD40L polyclonal antibody. As to the method:
To evaluate the avidity of the different formats, a CD40L competitive ELISA was performed. Briefly, the plates were coated with rhCD40 Fc at 1 μg/ml and incubated overnight at 4° C. The plates were washed twice with 150 μl of washing buffer (PBS, Tween 20 0.1%) with a plate washer and saturated with Casein 5% (Sigma) in PBS for 90 minutes at room temperature (25±1° C.). […] The resulting solution was then mixed and added to the plates. The plates were washed 3 times as described previously. […] The plates were incubated for 90 minutes at room temperature (25±1° C.). The plates were then washed. PolyHRP-Streptavidin was then diluted in dilution buffer and added to the plates. The plates were incubated an additional 90 minutes at room temperature (25±1° C.). Plates were washed 3 times as described previously and the substrate (TMB, Pierce Thermo-Scientific) was added in the plate for 10 minutes. The reaction was stopped using an acidic solution and the plates were read at 450-630 nm and the resulting percent inhibition was calculated.
On to B13, for which the “IC50 (read off the curve)” value is about 4 nM.
Consider B14, for which the “IC50 (read off the curve)” value was about 2 nM.

Another experiment concerns the target T1, human CD40L. Kind of experiment: cell-based or functional assay. This is another data set of the same source.
For B13, the “IC50 (read off the curve)” value is about 2 nM.
For B14, the “IC50 (read off the curve)” value was about 0.6 nM.
